Experimental data published in patent US20120316071A1 (published 2012).

How the values were obtained:
[1] = target: T1, Recombinant Human DLL4 (delta-like protein 4) (human, UniProt Q9NR61 27-524); assay: ELISA, DLL4 coated on plate, Fab at 12.5 nM (2-fold dilution series), absorbance at 450 nm
T1 construct: Bought recombinant human DLL4 coated on the ELISA plate; also called rHuman DLL4

[2] = target: T1, Recombinant Human DLL4 (delta-like …); assay: ELISA, DLL4 coated on plate, Fab at 25 nM (2-fold dilution series), absorbance at 450 nm
[3] = target: T1, Recombinant Human DLL4 (delta-like …); assay: ELISA, DLL4 coated on plate, Fab at 100 nM (2-fold dilution series), absorbance at 450 nm
[4] = target: T1, Recombinant Human DLL4 (delta-like …); assay: ELISA, DLL4 coated on plate, Fab at 50 nM (2-fold dilution series), absorbance at 450 nm

B1: Fab VH5-51_IGHD5-18*01>3_IGHJ4*01 G100K/G104T G24A/S28R/G35V (KT ARV) & V3-4_IGLJ1*01 V91L/S96P S52I (Fab, V domains shown)
VH: EVQLVQSGAEVKKPGESLKISCKTSGYRFTSYWIVWVRQMPGKGLEWMGIIYPGDSDTRYSPSFQGQVTISADKSISTAYLQWSSLKASDTAMYYCARRKYSYTYDYFDYWGQGTLVTVSS
VL: QTVVTQEPSFSVSPGGTVTLTCGLSSGSVSTSYYPSWYQQTPGQAPRTLIYITNTRSSGVPDRFSGSILGNKAALTITGAQADDESDYYCLLYMGPGISYVFGTGTKVTVL
notes: Fab; Expressed in E. coli with CH1 (plasmid A, His6 and Flag tags) and lambda CL (plasmid E); also called G100K/G104T G24A/S28R/G35V & V91L/S96P S52I
ELISA signal [1]: 0.4 | ELISA signal [2]: 0.6 | ELISA signal [3]: 1.04 | ELISA signal [4]: 0.82

B2: Fab VH5-51_IGHD5-18*01>3_IGHJ4*01 G100K & V3-4_IGLJ1*01 (wildtype) (Fab, V domains shown)
VH: EVQLVQSGAEVKKPGESLKISCKGSGYSFTSYWIGWVRQMPGKGLEWMGIIYPGDSDTRYSPSFQGQVTISADKSISTAYLQWSSLKASDTAMYYCARRKYSYGYDYFDYWGQGTLVTVSS
VL: QTVVTQEPSFSVSPGGTVTLTCGLSSGSVSTSYYPSWYQQTPGQAPRTLIYSTNTRSSGVPDRFSGSILGNKAALTITGAQADDESDYYCVLYMGSGISYVFGTGTKVTVL
notes: Fab; Expressed in E. coli with CH1 (plasmid A, His6 and Flag tags) and lambda CL (plasmid E); also called G100K & Wildtype
ELISA signal [1]: 0.19 | ELISA signal [2]: 0.18 | ELISA signal [3]: 0.2 | ELISA signal [4]: 0.19

B3: Fab VH5-51_IGHD5-18*01>3_IGHJ4*01 G100K/G104T G24L/S28R/G35V (KT LRV) & V3-4_IGLJ1*01 V91L/S96P S52M (Fab, V domains shown)
VH: EVQLVQSGAEVKKPGESLKISCKTSGYRFTSYWIVWVRQMPGKGLEWMGIIYPGDSDTRYSPSFQGQVTISADKSISTAYLQWSSLKASDTAMYYCARRKYSYTYDYFDYWGQGTLVTVSS
VL: QTVVTQEPSFSVSPGGTVTLTCGLSSGSVSTSYYPSWYQQTPGQAPRTLIYMTNTRSSGVPDRFSGSILGNKAALTITGAQADDESDYYCLLYMGPGISYVFGTGTKVTVL
notes: Fab; Expressed in E. coli with CH1 (plasmid A, His6 and Flag tags) and lambda CL (plasmid E); also called G100K/G104T G24L/S28R/G35V & V91L/S96P S52M
ELISA signal [1]: 0.41 | ELISA signal [2]: 0.59 | ELISA signal [3]: 1.01 | ELISA signal [4]: 0.8

B4: Fab VH5-51_IGHD5-18*01>3_IGHJ4*01 & V3-4_IGLJ1*01 (parental, wildtype) (Fab, V domains shown)
VH: EVQLVQSGAEVKKPGESLKISCKGSGYSFTSYWIGWVRQMPGKGLEWMGIIYPGDSDTRYSPSFQGQVTISADKSISTAYLQWSSLKASDTAMYYCARRGYSYGYDYFDYWGQGTLVTVSS
VL: QTVVTQEPSFSVSPGGTVTLTCGLSSGSVSTSYYPSWYQQTPGQAPRTLIYSTNTRSSGVPDRFSGSILGNKAALTITGAQADDESDYYCVLYMGSGISYVFGTGTKVTVL
notes: Fab; Expressed in E. coli with CH1 (plasmid A, His6 and Flag tags) and lambda CL (plasmid E); also called Wildtype & Wildtype; parent Hit Fab
ELISA signal [1]: 0.17 | ELISA signal [2]: 0.18 | ELISA signal [3]: 0.17 | ELISA signal [4]: 0.16

B5: Fab VH5-51_IGHD5-18*01>3_IGHJ4*01 G100K/G104T (KT) & V3-4_IGLJ1*01 (wildtype) (Fab, V domains shown)
VH: EVQLVQSGAEVKKPGESLKISCKGSGYSFTSYWIGWVRQMPGKGLEWMGIIYPGDSDTRYSPSFQGQVTISADKSISTAYLQWSSLKASDTAMYYCARRKYSYTYDYFDYWGQGTLVTVSS
VL: QTVVTQEPSFSVSPGGTVTLTCGLSSGSVSTSYYPSWYQQTPGQAPRTLIYSTNTRSSGVPDRFSGSILGNKAALTITGAQADDESDYYCVLYMGSGISYVFGTGTKVTVL
notes: Fab; Expressed in E. coli with CH1 (plasmid A, His6 and Flag tags) and lambda CL (plasmid E); also called H:KT & L:wt; KT double mutant
ELISA signal [1]: 0.18 | ELISA signal [2]: 0.16 | ELISA signal [3]: 0.18 | ELISA signal [4]: 0.18

B6: Fab VH5-51_IGHD5-18*01>3_IGHJ4*01 G100K/G104T G24T/S28R/G35V (KT TRV) & V3-4_IGLJ1*01 V91L/S96P (LP) (Fab, V domains shown)
VH: EVQLVQSGAEVKKPGESLKISCKTSGYRFTSYWIVWVRQMPGKGLEWMGIIYPGDSDTRYSPSFQGQVTISADKSISTAYLQWSSLKASDTAMYYCARRKYSYTYDYFDYWGQGTLVTVSS
VL: QTVVTQEPSFSVSPGGTVTLTCGLSSGSVSTSYYPSWYQQTPGQAPRTLIYSTNTRSSGVPDRFSGSILGNKAALTITGAQADDESDYYCLLYMGPGISYVFGTGTKVTVL
notes: Fab; Expressed in E. coli with CH1 (plasmid A, His6 and Flag tags) and lambda CL (plasmid E); also called H:KT TRV & L:LP
ELISA signal [1]: 0.45 | ELISA signal [2]: 0.58 | ELISA signal [3]: 1 | ELISA signal [4]: 0.81

B7: Fab VH5-51_IGHD5-18*01>3_IGHJ4*01 G100K/G104T G24L/S28R/G35V (KT LRV) & V3-4_IGLJ1*01 V91L/S96P S52F (Fab, V domains shown)
VH: EVQLVQSGAEVKKPGESLKISCKTSGYRFTSYWIVWVRQMPGKGLEWMGIIYPGDSDTRYSPSFQGQVTISADKSISTAYLQWSSLKASDTAMYYCARRKYSYTYDYFDYWGQGTLVTVSS
VL: QTVVTQEPSFSVSPGGTVTLTCGLSSGSVSTSYYPSWYQQTPGQAPRTLIYFTNTRSSGVPDRFSGSILGNKAALTITGAQADDESDYYCLLYMGPGISYVFGTGTKVTVL
notes: Fab; Expressed in E. coli with CH1 (plasmid A, His6 and Flag tags) and lambda CL (plasmid E); also called G100K/G104T G24L/S28R/G35V & V91L/S96P S52F
ELISA signal [1]: 0.42 | ELISA signal [2]: 0.49 | ELISA signal [3]: 0.99 | ELISA signal [4]: 0.69

B8: Fab VH5-51_IGHD5-18*01>3_IGHJ4*01 G100K/G104T G24A/S28R/G35V (KT ARV) & V3-4_IGLJ1*01 V91L/S96P S52P (Fab, V domains shown)
VH: EVQLVQSGAEVKKPGESLKISCKTSGYRFTSYWIVWVRQMPGKGLEWMGIIYPGDSDTRYSPSFQGQVTISADKSISTAYLQWSSLKASDTAMYYCARRKYSYTYDYFDYWGQGTLVTVSS
VL: QTVVTQEPSFSVSPGGTVTLTCGLSSGSVSTSYYPSWYQQTPGQAPRTLIYPTNTRSSGVPDRFSGSILGNKAALTITGAQADDESDYYCLLYMGPGISYVFGTGTKVTVL
notes: Fab; Expressed in E. coli with CH1 (plasmid A, His6 and Flag tags) and lambda CL (plasmid E); also called G100K/G104T G24A/S28R/G35V & V91L/S96P S52P
ELISA signal [1]: 0.43 | ELISA signal [2]: 0.59 | ELISA signal [3]: 1 | ELISA signal [4]: 0.79

B9: Fab VH5-51_IGHD5-18*01>3_IGHJ4*01 G100K/G104T G24T/S28R/G35V (KT TRV) & V3-4_IGLJ1*01 V91L/S96P S52Y (Fab, V domains shown)
VH: EVQLVQSGAEVKKPGESLKISCKTSGYRFTSYWIVWVRQMPGKGLEWMGIIYPGDSDTRYSPSFQGQVTISADKSISTAYLQWSSLKASDTAMYYCARRKYSYTYDYFDYWGQGTLVTVSS
VL: QTVVTQEPSFSVSPGGTVTLTCGLSSGSVSTSYYPSWYQQTPGQAPRTLIYYTNTRSSGVPDRFSGSILGNKAALTITGAQADDESDYYCLLYMGPGISYVFGTGTKVTVL
notes: Fab; Expressed in E. coli with CH1 (plasmid A, His6 and Flag tags) and lambda CL (plasmid E); also called H:KT TRV & L:LP S52Y
ELISA signal [1]: 0.41 | ELISA signal [2]: 0.56 | ELISA signal [3]: 0.9 | ELISA signal [4]: 0.72
